Data as given in US9175077B2, “Nucleic acids encoding biologically active polypeptides derived from a novel early stage pregnancy factor designated maternin (MA)” (NOBEL BIOSCIENCES LLC, priority 1999, dated 2015).
Where two headings read alike, the source gives them in different places.

Columns and labels:
[1] = Summary of active and inactive peptides / overall biological activities
HIV-1 gene expression = test: HIV-1 transgenic mice, pups feeding from treated mothers; format: in vivo; settings: mouse, in vivo
From the text: The transgenic mice contain 5.1 kb of the HIV-1 proviral genome, lacking gag and pol genes and 2.3 kb of vector.^172 The newly developed transgenic rat contains the same HIV-1 sequences and vector.
Twenty-four hours after birth the mothers were either inoculated subcutaneously daily for 10 days or received an implanted osmotic pump delivering 30-150 pmoles of either native or synthetic MA or pMA. Various control polypeptides were used at equimolar or vast molar excess. The newborn pups were then allowed to feed from the foster mother breast milk over the entire period. Since the animals are at risk from needle inoculation, breastfeeding was the chosen route for MA administration.
In these experiments total RNA was extracted from samples of skin RNA206 10 days after birth of MA treated and untreated mice. One ug of RNA was reverse transcribed into cDNA using random hexamer primer and […] reverse transcriptase (Life Technologies, Inc.) in a final vol. Of 30 ul. Three ul of each reaction was used for PCR amplification of the HIV-1 gene sequences (env, tat, nef, and rev) as described […], and glyceraldehyde 3-phosphate dehydrogenase (GAPDH) was amplified from each sample for normalization. After 25 cycles, 10% of the products were resolved by electrophoresis on 2% agarose gels, transferred to nitrocellulose membranes by Southern blotting, and hybridized to fluorescein isthiocyanate-labeled oligonucleotide probes complementary to internal sequences of the amplicons […]. Bound probes were detected by chemiluminescence (Amersham) and relative mRNA levels determined by densitrometry after normalization with GAPDH mRNA levels.

human tumor cells = format: cell-based; settings: controls at equimolar or 5 to 10× greater concentrations
Method: The anti-tumor activities of MA were assessed in several in vitro and in vivo systems using published methods.^166 In vitro studies were with a wide variety of human tumor cell lines as well as short-term cultures of cells from biopsy samples obtained from tumors. The assays included effects of MA on colony formation, cell number and viability (trypan blue), and apoptosis. Four measures of microscopy were used. In vivo studies included the effects of MA on tumors induced in immunodeficient mice by xenotransplanted various human neoplastic cells, spontaneous neoplasms of immuno-competent mice and rats, and a few standard tumors in immuno-competent mice. Representative examples are presented.
Cells (5×10^5/ml) were seeded in modified Eagle's medium supplemented with 10% FCS, 10% conditioned medium form PHA stimulated human lymphocytes, 2 mM glutamine in 0.8% V/V methylcellulose with or without various treatments in a final volume of 1.0 ml. Then 0.1 ml aliquots were seeded in 96 well flat bottom microtest plates and incubated at 37° C. in 5% CO2 in air for 7 days. Aggregates containing 50 cells or more were scored as colonies.
5×10^5 cells were seeded in triplicate on 24 gelatin coated wells in conditions as described for Panel A and treated with the indicated test materials. After 3 days the cells were dislodged from their monolayers by gentle pipetting with cell dissociation buffer (Life Technologies), counted after trypan blue staining and aliquots examined for Annexin V staining by indirect IFA […].
Studies of the anti-tumor cell effects of MA were extended to other carcinomas, melanoma, some hematopoietic tumors, and carcinomas of the colon, prostate, breast, lung, brain, pancreas, and kidney-using cell lines from these tumors. […] Many more types of tumor cells were studied utilizing other assays (see below).

[2] = Lethally irradiated rats and mice; settings: treated at time of radiation
Method: In order to determine in vivo relevance of the prohematopoietic effects of MA treated rats and mice under several conditions of bone marrow suppression. First, the effects of native MA and pMA and of the synthetic 15-mer MAS1 were treated for their capacity to reduce or prevent the effects of lethal doses of gamma irradiation. […] MA, pMA, MAS1, and various control polypeptides were given 48 and 24 hrs before, during, or 24 hrs after radiation. The animals treated prior to radiation received either 100 ng vs. 1 ug (rats) or 50 ng vs. 500 ng (mice) as 2 subcutaneous injections.
It is not yet possible to determine the precise molar dose of pMA because of less certainty on its full-length sequence.
To ascertain that the MA effect did promote hematopoiesis in these animals we examined the bone marrow for cellularity and colony formation and determined peripheral blood counts.

[3] = Lethal dose taxol in Sprague-Dawley rats; format: in vivo; settings: even at high doses
Method: Sprague-Dawley rats were given taxol in large lethal doses, 4.5 mg in one I.P. inoculation. […] Bone marrow suppression can also be a side effect of the clinical use of taxol.^179 As in the radiation experiments, either MA, pMA, MAS1, or various polypeptide controls were given subcutaneously only in two doses 24 and 48 hrs before taxol treatment or were given 3×/week for 4 weeks. […]

[4] = system: hematopoietic progenitors (CFU-GEMM, BFU-e, CFU-GM, T-CFC); test: Hematopoietic colony formation assays; format: cell-based, human
From the text: Hematopoietic colony formation assays with bone marrow or cord blood of normal human volunteers and bone marrow of monkeys, rats, and mice were utilized. The assays are conventional measurements of the number of progenitors for erythrocytes, granulocytes, macrophages, platelets, and T-cells. The culture conditions included growth factors that would give near optimum growth for the particular lineage. These factors included II-3, PHA-lymphocyte conditioned medium, erythropoietin (EPO), II-6, and GM-CSF. The number of colonies developing in methylcellulose reflects the number of progenitor cells, and the percent increase is a measure of the effect of different polypeptides to increase colony number above the maximum obtained with the indicated known growth factors.
The latter is a less conventional assay, and details on the methods involved are described elsewhere.^178

[5] = system: human carcinoma and sarcoma cells (PC3, KS Y-1); test: Xenotransplanted human tumors in immunodeficient mice; format: in vivo; settings: controls at equivalent and higher molar concentrations
Method: In the first set of experiments, MA was tested against tumors formed by xenotransplantation of various human carcinoma and sarcoma cells in immunodeficient mice. […] […] Three different synthetic forms of MA were used: full length (MAS3) and the previously described MAS1 and MAS2 (Panel C).

## peptide 6-42: β-core AA 6-42 N-terminal polypeptide with PDGF related sequences (RPRCRPINATLAVEKEGCPVCITVNTTICAGYCPTMT; UniProt P0DN86 26-62, looked up, fragment) [reference compound]
[1]
  biological activities in vitro or in vivo in the experimental systems described: none of the activities

## β-hCG AA 21-52: control peptide 32 amino acids in length, AA 21-52 of β-hCG (EGCPVCITVNTTICAGYCPTMTRVLQGVLPAL; listed as Homo sapiens) [reference compound]
HIV-1 gene expression
  HIV-1 viral expression in tissues: high expression
  mice dead by day 10: 10 of 10
Human tumor cells
  inhibition of growth / induction of apoptosis of neoplastic cells: negative

## β-hCG 6-39: SEQ ID NO: 17 (RPRCRPINATLAVEKEGCPVCITVNTTICAGYCP; listed as Homo sapiens)
Human tumor cells
  inhibition of growth / induction of apoptosis of neoplastic cells: negative

B1: β-core: purified hCG beta core, degradation product of the beta chain of hCG; full length native glycosylated AA 6-40 & 55-92 (protein)
chain 1: RPRCRPINATLAVEKEGCPVCITVNTTICAGYCPTMT
chain 2: VVCNYRDVRFESIRLPGCPRGVNPVVSYAVALSCQCAL
HIV-1 gene expression
  HIV-1 viral expression in tissues: high expression
  mice dead by day 10: 10 of 10
[1]; listed as native glycosylated β-core
  biological activities in vitro or in vivo in the experimental systems described: none of the biological activities
[1]; listed as purified native glycosylated core
  biological activities in vitro or in vivo in the experimental systems described: no activity
Human tumor cells
  inhibition of growth / induction of apoptosis of neoplastic cells: no inhibition of growth or induction of apoptosis
[2]
  time within which animals died: ≤ 5 days
[3]
  effect on survival (qualitative): no effect
[4]
  hematopoietic effects in vivo and in vitro: None
[4]; equimolar or higher concentrations
  effect on colony number (qualitative): no significant effect above background
[5]
  effect on xenotransplanted tumor (qualitative): no effect
